B1: DUSP5 (parent)
chain: YSEYPECCVDVKPISQEKIESERA

Variants of: B1
Test: protein stability index of a GFP-peptide fusion (GPS, HEK-293T) (PSI 1-6); higher = more stable
Details: c terminus: a fixed tail appended
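Also: lentivirally expressed fusions sorted by FACS into six bins by GFP to DsRed ratio, PSI derived from sequencing read proportions per bin multiplied by bin number.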

| Variant | protein stability index |
| --- | --- |
| YSEYPGCCVDVKPISQEKIESERA [E6G] | 3.36 |
| YSEYPHCCVDVKPISQEKIESERA [E6H] | 2.47 |
| YSEYPYCCVDVKPISQEKIESERA [E6Y] | 1.44 |
| YSEYPWCCVDVKPISQEKIESERA [E6W] | 3.98 |
| YSEYPACCVDVKPISQEKIESERA [E6A] | 2.63 |
| YSEYPPCCVDVKPISQEKIESERA [E6P] | 2.4 |
| YSEYPRCCVDVKPISQEKIESERA [E6R] | 1.83 |
| YSEYPDCCVDVKPISQEKIESERA [E6D] | 4.55 |
| YSEYPFCCVDVKPISQEKIESERA [E6F] | 2.28 |
| YSEYPTCCVDVKPISQEKIESERA [E6T] | 2.75 |
| YSEYPKCCVDVKPISQEKIESERA [E6K] | 1.38 |
| YSEYPMCCVDVKPISQEKIESERA [E6M] | 1.63 |
| YSEYPSCCVDVKPISQEKIESERA [E6S] | 2.9 |
| YSEYPQCCVDVKPISQEKIESERA [E6Q] | 2.67 |
| YSEYPNCCVDVKPISQEKIESERA [E6N] | 3.74 |
| YSEYPVCCVDVKPISQEKIESERA [E6V] | 2.37 |
| YSEYPCCCVDVKPISQEKIESERA [E6C] | 2.6 |
| YYEYPECCVDVKPISQEKIESERA [S2Y] | 4.93 |
| YMEYPECCVDVKPISQEKIESERA [S2M] | 4.28 |
| YEEYPECCVDVKPISQEKIESERA [S2E] | 5.79 |
| YHEYPECCVDVKPISQEKIESERA [S2H] | 2.13 |
| YPEYPECCVDVKPISQEKIESERA [S2P] | 4.88 |
| YGEYPECCVDVKPISQEKIESERA [S2G] | 5.11 |
| YIEYPECCVDVKPISQEKIESERA [S2I] | 1.92 |

| Variant | protein stability index |
| --- | --- |
| YTEYPECCVDVKPISQEKIESERA [S2T] | 2.62 |
| YCEYPECCVDVKPISQEKIESERA [S2C] | 2.29 |
| YKEYPECCVDVKPISQEKIESERA [S2K] | 5.35 |
| YDEYPECCVDVKPISQEKIESERA [S2D] | 5.29 |
| YREYPECCVDVKPISQEKIESERA [S2R] | 5.49 |
| YVEYPECCVDVKPISQEKIESERA [S2V] | 2.53 |
| YQEYPECCVDVKPISQEKIESERA [S2Q] | 4.29 |
| YNEYPECCVDVKPISQEKIESERA [S2N] | 5.31 |
| YWEYPECCVDVKPISQEKIESERA [S2W] | 4.44 |
| YFEYPECCVDVKPISQEKIESERA [S2F] | 4.11 |
| YLEYPECCVDVKPISQEKIESERA [S2L] | 3.67 |
| YSEKPECCVDVKPISQEKIESERA [Y4K] | 5.62 |
| YSERPECCVDVKPISQEKIESERA [Y4R] | 5.52 |
| YSEHPECCVDVKPISQEKIESERA [Y4H] | 5.02 |
| YSEAPECCVDVKPISQEKIESERA [Y4A] | 5.66 |
| YSELPECCVDVKPISQEKIESERA [Y4L] | 5.71 |
| YSEWPECCVDVKPISQEKIESERA [Y4W] | 1.72 |
| YSEEPECCVDVKPISQEKIESERA [Y4E] | 5.93 |
| YSEMPECCVDVKPISQEKIESERA [Y4M] | 4.6 |
| YSEDPECCVDVKPISQEKIESERA [Y4D] | 5.67 |
| YSEFPECCVDVKPISQEKIESERA [Y4F] | 4.06 |
| YSESPECCVDVKPISQEKIESERA [Y4S] | 5.19 |
| YSEVPECCVDVKPISQEKIESERA [Y4V] | 5.67 |
| YSEIPECCVDVKPISQEKIESERA [Y4I] | 5.75 |

| Variant | protein stability index |
| --- | --- |
| YSEPPECCVDVKPISQEKIESERA [Y4P] | 5.53 |
| YSEGPECCVDVKPISQEKIESERA [Y4G] | 5.77 |
| YSETPECCVDVKPISQEKIESERA [Y4T] | 5.77 |
| YSEQPECCVDVKPISQEKIESERA [Y4Q] | 5.34 |
| YSEYPEFCVDVKPISQEKIESERA [C7F] | 2.28 |
| YSEYPEACVDVKPISQEKIESERA [C7A] | 4.16 |
| YSEYPEKCVDVKPISQEKIESERA [C7K] | 4.6 |
| YSEYPEGCVDVKPISQEKIESERA [C7G] | 5.38 |
| YSEYPEICVDVKPISQEKIESERA [C7I] | 3.37 |
| YSEYPEDCVDVKPISQEKIESERA [C7D] | 4.89 |
| YSEYPEHCVDVKPISQEKIESERA [C7H] | 4.17 |
| YSEYPEECVDVKPISQEKIESERA [C7E] | 5.76 |
| YSEYTECCVDVKPISQEKIESERA [P5T] | 4.85 |
| YSEYCECCVDVKPISQEKIESERA [P5C] | 4.34 |
| YSEYYECCVDVKPISQEKIESERA [P5Y] | 3.9 |
| YSEYRECCVDVKPISQEKIESERA [P5R] | 3.48 |
| YSEYQECCVDVKPISQEKIESERA [P5Q] | 5.33 |
| YSEYLECCVDVKPISQEKIESERA [P5L] | 4.28 |
| YSEYAECCVDVKPISQEKIESERA [P5A] | 4.47 |
| YSEYSECCVDVKPISQEKIESERA [P5S] | 4.73 |
| YSEYDECCVDVKPISQEKIESERA [P5D] | 5.42 |
| YSEYMECCVDVKPISQEKIESERA [P5M] | 3.98 |
| YSEYNECCVDVKPISQEKIESERA [P5N] | 5.38 |
| YSEYKECCVDVKPISQEKIESERA [P5K] | 5.16 |

| Variant | protein stability index |
| --- | --- |
| YSEYIECCVDVKPISQEKIESERA [P5I] | 3.96 |
| YSEYWECCVDVKPISQEKIESERA [P5W] | 1.21 |
| YSEYFECCVDVKPISQEKIESERA [P5F] | 3.18 |
| YSEYHECCVDVKPISQEKIESERA [P5H] | 3.39 |
| YSEYVECCVDVKPISQEKIESERA [P5V] | 4.45 |
| YSGYPECCVDVKPISQEKIESERA [E3G] | 4.27 |
| YSDYPECCVDVKPISQEKIESERA [E3D] | 5.39 |
| YSQYPECCVDVKPISQEKIESERA [E3Q] | 4.36 |
| YSHYPECCVDVKPISQEKIESERA [E3H] | 4.49 |
| YSSYPECCVDVKPISQEKIESERA [E3S] | 3.95 |
| YSTYPECCVDVKPISQEKIESERA [E3T] | 4.67 |
| YSAYPECCVDVKPISQEKIESERA [E3A] | 4.55 |
| YSLYPECCVDVKPISQEKIESERA [E3L] | 4.24 |
| YSPYPECCVDVKPISQEKIESERA [E3P] | 4.56 |
| YSKYPECCVDVKPISQEKIESERA [E3K] | 4.53 |
| YSFYPECCVDVKPISQEKIESERA [E3F] | 4.66 |
| YSRYPECCVDVKPISQEKIESERA [E3R] | 4.17 |
| YSMYPECCVDVKPISQEKIESERA [E3M] | 4.7 |
| YSIYPECCVDVKPISQEKIESERA [E3I] | 4.17 |
| YSNYPECCVDVKPISQEKIESERA [E3N] | 4.62 |
| YSYYPECCVDVKPISQEKIESERA [E3Y] | 4.24 |
| YSCYPECCVDVKPISQEKIESERA [E3C] | 3.53 |

From the supplement of paper PMC10567573
